Biological target: the molecule itself
Assay: crystal structure

B1: N-(His)10-tagged CalG3 (native) (enzyme, Micromonospora echinospora, UniProt Q8KND7 1-376, looked up)
chain: MLFVSSPGIGHLFPLIQLAWGFRTAGHDVLIAVAEHADRAAAAGLEVVDVAPDYSAVKVFEQVAKDNPRFAETVATRPAIDLEEWGVQIAAVNRPLVDGTMALVDDYRPDLVVYEQGATVGLLAADRAGVPAVQRNQSAWRTRGMHRSIASFLTDLMDKHQVSLPEPVATIESFPPSLLLEAEPEGWFMRWVPYGGGAVLGDRLPPVPARPEVAITMGTIELQAFGIGAVEPIIAAAGEVDADFVLALGDLDISPLGTLPRNVRAVGWTPLHTLLRTCTAVVHHGGGGTVMTAIDAGIPQLLAPDPRDQFQHTAREAVSRRGIGLVSTSDKVDADLLRRLIGDESLRTAAREVREEMVALPTPAETVRRIVERISG
For B1, the “stoichiometry N” value was 2.

From paper PMC2965851 (Chemistry & biology, 2008)
